Measured values taken from patent US20060246543.

Target: T1, STAT4 immunoprecipitated with anti-STAT4 from ConA-activated thymocytes
T1 sequence (P42228 1-749, species assumed, looked up): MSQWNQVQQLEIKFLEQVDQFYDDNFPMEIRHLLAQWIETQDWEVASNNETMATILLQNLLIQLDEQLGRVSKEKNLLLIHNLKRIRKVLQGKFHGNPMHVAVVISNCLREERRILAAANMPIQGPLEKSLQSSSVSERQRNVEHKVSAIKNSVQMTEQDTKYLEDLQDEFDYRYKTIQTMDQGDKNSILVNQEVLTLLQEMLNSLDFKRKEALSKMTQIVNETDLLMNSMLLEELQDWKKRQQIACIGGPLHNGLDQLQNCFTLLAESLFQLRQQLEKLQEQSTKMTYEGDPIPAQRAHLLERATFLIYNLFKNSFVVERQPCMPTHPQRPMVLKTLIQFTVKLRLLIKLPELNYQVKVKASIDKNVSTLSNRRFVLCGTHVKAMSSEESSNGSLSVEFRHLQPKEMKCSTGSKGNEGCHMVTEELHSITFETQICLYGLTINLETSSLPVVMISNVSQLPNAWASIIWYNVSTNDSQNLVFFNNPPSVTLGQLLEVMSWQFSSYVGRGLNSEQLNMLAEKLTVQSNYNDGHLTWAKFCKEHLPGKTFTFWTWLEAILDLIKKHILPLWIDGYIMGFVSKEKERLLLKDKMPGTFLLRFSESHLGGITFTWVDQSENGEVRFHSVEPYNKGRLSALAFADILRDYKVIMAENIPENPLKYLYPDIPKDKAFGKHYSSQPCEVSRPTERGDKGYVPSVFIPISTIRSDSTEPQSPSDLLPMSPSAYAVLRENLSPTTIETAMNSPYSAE

B1: recombinant SLIM (His-SLIM expressed in E. coli and purified on a Nickel column) (protein)
chain: MALTVDVAGPAPWGFRISGGRDFHTPIIVTKVTERGKAEAADLRPGDIIVAINGQSAENMLHAEAQSKIRQSASPLRLQLDRSQTASPGQTNGEGSLEVLATRFQGSLRTHRDSQSSQRSACFSPVSLSPRPCSPFSTPPPTSPVALSKEDMIGCSFQSLTHSPGLAAAHHLTYPGHPTSQQAGHSSPSDSAVRVLLHSPGRPSSPRFSLDLEEDSEVFKMLQENRQGRAAPRQSSSFRLLQEALEAEERGGTPAFVPSSLSSQASLPTSRALATPPKLHTCKKCSVNISNQAVRIQEGRYRHPGCYTCADCGLNLKMRGHFWVGNELYCEKHARQRYSMPGTLNSRA
  in vitro ubiquitination of STAT4 (biotin-ubiquitin, E1, UbcH5a; immunoblot anti-STAT4): purified recombinant SLIM could mediate the in vitro ubiquitination of purified STAT4 which was immunoprecipitated from ConA-activated thymocytes
